In this experiment the target is CSA (human, untagged after removal of GST) (human, UniProt Q13216 1-396). In words: pull-down.
CSA (human, untagged after removal of GST), sequence (Q13216 whole entry): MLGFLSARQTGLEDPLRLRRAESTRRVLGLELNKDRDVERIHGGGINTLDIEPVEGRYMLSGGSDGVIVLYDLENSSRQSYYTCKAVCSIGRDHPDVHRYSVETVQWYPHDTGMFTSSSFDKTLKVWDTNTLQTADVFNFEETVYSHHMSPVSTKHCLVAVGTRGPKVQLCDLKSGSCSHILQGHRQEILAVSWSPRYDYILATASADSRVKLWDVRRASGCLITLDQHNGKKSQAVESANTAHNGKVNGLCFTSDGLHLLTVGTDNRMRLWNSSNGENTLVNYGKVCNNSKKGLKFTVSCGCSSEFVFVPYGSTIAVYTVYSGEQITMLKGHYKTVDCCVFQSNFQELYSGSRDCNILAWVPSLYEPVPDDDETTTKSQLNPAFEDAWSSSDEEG

B1: His-STK19 (human STK19S, 254aa isoform) (natural protein, UniProt P49842 1-254, looked up)
chain: MSWKRHHLIPETFGVKRRRKRGPVESDPLRGEPGSARAAVSELMQLFPRGLFEDALPPIVLRSQVYSLVPDRTVADRQLKELQEQGEIRIVQLGFDLDAHGIIFTEDYRTRVLKACDGRPYAGAVQKFLASVLPACGDLSFQQDQMTQTFGFRDSEITHLVNAGVLTVRDAGSWWLAVPGAGRFIKYFVKGRQAVLSMVRKAKYRELLLSELLGRRAPVVVRLGLTYHVHDLIGAQLVDCISTTSGTLLRLPET
As for B1, the binding result was “binds”.

The values are drawn from publication PMC11602130 (Nucleic Acids Research, 2024).
